In the Immune Epitope Database (IEDB) one finds Kd data, which are given here for 47 sequences.

One test deals with HLA-A*32:01. In words: IEDB peptide-MHC binding, purified MHC/competitive/radioactivity; filed as Kd, often an IC50 or EC50 that approximates it; ≥ and ≤ were set here for values at or beyond the usual limits of such assays.
The target of another test is HLA-A*30:01. The description is as above.
The target of another test is HLA-B*08:01. Described as above.
A further test concerns the target HLA-B*53:01. The test is described as above.
The target in a further test is HLA-A*26:01. In words: IEDB peptide-MHC binding, purified MHC/direct/fluorescence; filed as Kd, often an IC50 or EC50 that approximates it; ≥ and ≤ were set here for values at or beyond the usual limits of such assays.
For a further test, the target named is HLA-A*33:01. Description: IEDB peptide-MHC binding, purified MHC/competitive/radioactivity; filed as Kd, often an IC50 or EC50 that approximates it; ≥ and ≤ were set here for values at or beyond the usual limits of such assays. As to conditions: source organism: Dengue virus 1 Brazil/97-11/1997.
Test [1] addresses HLA-B*40:01. The test is described as above.
The next test has as its target HLA-B*15:01. In words: IEDB peptide-MHC binding, purified MHC/direct/fluorescence; filed as Kd, often an IC50 or EC50 that approximates it; ≥ and ≤ were set here for values at or beyond the usual limits of such assays.
The target of another test is HLA-A*11:01. The test is described as above.
The target of the next test is HLA-A*01:01. Described as above. To be noted: source organism: Haemophilus influenzae.
The next test addresses HLA-A*69:01. The description is as above.
A further test deals with HLA-A*31:01. The description is as above.
Test [2] concerns the target HLA-A*03:01. The test is described as above.
Another test concerns the target HLA-A*23:01. Description: IEDB peptide-MHC binding, purified MHC/competitive/radioactivity; filed as Kd, often an IC50 or EC50 that approximates it; ≥ and ≤ were set here for values at or beyond the usual limits of such assays. As to conditions: source organism: Dengue virus 1 Brazil/97-11/1997.
A further test addresses HLA-A*24:02. The test is described as above. As to conditions: source organism: Dengue virus 1 Brazil/97-11/1997.
Test [3] has as its target HLA-A*03:01. The description is as above. As to conditions: source organism: Dengue virus 2 Peru/IQT2913/1996.
The next test concerns the target HLA-B*58:01. Description: IEDB peptide-MHC binding, purified MHC/direct/fluorescence; filed as Kd, often an IC50 or EC50 that approximates it; ≥ and ≤ were set here for values at or beyond the usual limits of such assays.
Test [4] deals with HLA-B*40:01. Described as above. As to conditions: source organism: Rickettsia prowazekii.
The next test concerns the target HLA-A*02:01. The test is described as above. As to conditions: source organism: Rickettsia prowazekii.
Where [5] appears, read: source organism: Dengue virus 2 Jamaica/1409/1983.
[6] abbreviates: source organism: Vaccinia virus WR.
[7] abbreviates: source organism: Dengue virus 1 Brazil/97-11/1997.
Where [8] appears, read: source organism: Dengue virus 4 Philippines/H241/1956.
[9] abbreviates: source organism: Dengue virus 3 Martinique/1243/1999.
Setting [10] is: source organism: Dengue virus 2 Peru/IQT2913/1996.
Where [11] appears, read: source organism: Haemophilus influenzae.
[12] abbreviates: source organism: Rickettsia prowazekii.

For the sequence AAIGKAWEEG, in the test with HLA-A*32:01 (source organism: Dengue virus 1 Singapore/S275/1990), the Kd (as a rule, the constant that tells how readily two partners part at equilibrium) is at least 69900 nM.

In the case of AGILKRWGTI, in the test with HLA-A*32:01 (setting [5]), the Kd is 8820 nM. As for AGRLVRPFL, the Kd in the test with HLA-A*30:01 (setting [6]) came out at 252 nM. As for AYRIKQRGIL, in the test with HLA-B*08:01 (setting [5]), the Kd is 659 nM.

As to DARTYSDPLA, the Kd with HLA-A*30:01 (setting [7]) came to 924 nM.

On to DEAHFTDPSS, for which the Kd with HLA-A*30:01 (setting [8]) is 165 nM.

Consider DQLSKFRTL, for which the Kd with HLA-B*08:01 (setting [6]) stood at 7.4 nM.

DTQGSNWIQK: the Kd in the test with HLA-A*32:01 (setting [5]) was 267 nM. On to EDMLTVWNRV, for which, in the test with HLA-A*32:01 (setting [9]), the Kd was 13600 nM.

Regarding EKEENMVKSL, the Kd with HLA-B*08:01 (setting [9]) was 10600 nM. On to EKWKRQLNSL, for which the Kd in the test with HLA-B*08:01 (setting [8]) is 251 nM. Take EPPFGDSYII: the Kd in the test with HLA-B*53:01 (setting [5]) is 363 nM.

ETFKVIGGW returned a Kd with HLA-A*26:01 (source organism: Influenza A virus (A/swine/Italy/1654-1/99(H1N2))) of 182 nM. In the test with HLA-A*26:01 (source organism: Mycobacterium tuberculosis variant bovis), EVAGAGSGF displayed a Kd of 1.4 nM. With EVKTCTWPKS, the Kd in the test with HLA-A*32:01 (setting [9]) was at least 48400 nM. Regarding FFINFFNLL, the Kd with HLA-B*08:01 (setting [6]) worked out at 149 nM. As for FGIFTTNIW, in the test with HLA-B*53:01 (setting [7]), the Kd was found to be 168 nM.

As to FMNEDHWFSR, the Kd was 13.2 nM with HLA-A*33:01 and 7080 nM with HLA-A*32:01 (setting [7]). Regarding GAKIGCINV, in the test with HLA-A*30:01 (setting [6]), the Kd worked out at 9.11 nM. Consider GEGVLSKADL, for which the Kd with HLA-B*40:01 [1] (setting [9]) is 42.4 nM. On to GLFPVSIPIT, for which the Kd in the test with HLA-A*30:01 (setting [10]) worked out at 15900 nM. In the case of GLRNSLLVA, the Kd with HLA-A*30:01 (setting [6]) came out at 93.5 nM. Turning to GRLITANPVV, the Kd with HLA-A*30:01 (setting [9]) was 1430 nM. With GRTLRVLKMV, in the test with HLA-A*30:01 (setting [7]), the Kd came out at 634 nM. Turning to GTEMFRHGY, the Kd with HLA-B*15:01 (setting [11]) stood at 1160 nM; with HLA-A*11:01 (setting [11]), 166 nM; with HLA-A*01:01, 241 nM; with HLA-A*69:01 (setting [11]), 4450 nM; with HLA-A*31:01 (setting [11]), 8180 nM; with HLA-A*03:01 [2] (setting [11]) it was 2730 nM.

Turning to GTGNIGETL, the Kd with HLA-A*32:01 (setting [5]) came to 8120 nM. In the case of GYFTQTAGPW, the Kd with HLA-A*23:01 is 1220 nM; with HLA-A*24:02 it was at least 70300 nM. HLIIQYPSV: the Kd in the test with HLA-A*30:01 (setting [6]) is 164 nM. As for HLSNYIVSI, the Kd with HLA-A*32:01 (setting [6]) came to 0.986 nM. With HMILVVVTT, in the test with HLA-A*32:01 (setting [8]), the Kd is at least 77800 nM. Consider HMIVSRQEK, for which the values for the Kd in the test with HLA-A*30:01 (setting [10]) and in the test with HLA-A*03:01 [3] were 17.6 nM and 21.2 nM, respectively. In the case of HSRASPRIG, the Kd in the test with HLA-A*30:01 (setting [6]) was found to be 0.931 nM. Regarding HTLESPVEF, the Kd was 98.1 nM in the test with HLA-B*58:01 (source organism: SARS-CoV1), 1440 nM with HLA-B*15:01 (source organism: SARS-CoV1), at least 53900 nM with HLA-A*11:01 (source organism: SARS-CoV1) and 1400 nM with HLA-A*31:01 (source organism: SARS-CoV1). As to HTSARLHSL, the Kd with HLA-A*30:01 (setting [6]) was 4.14 nM. Consider IGESSSNPTI, for which the Kd with HLA-A*30:01 (setting [8]) is 7340 nM. As for IILWFFNAM, the Kd in the test with HLA-B*08:01 (setting [6]) came out at 5230 nM. On to IMAVLFVVTL, for which the Kd with HLA-B*08:01 (setting [8]) is 5420 nM. For the sequence IMRMRFKKG, in the test with HLA-B*08:01 (setting [6]), the Kd stood at 62.4 nM. Consider ISGVFPVSI, for which the Kd with HLA-A*32:01 (setting [5]) was 1120 nM.

For ISYGGGWRFQ, in the test with HLA-A*32:01 (setting [7]), the Kd is at least 56400 nM. For the sequence ITYWSRFTI, in the test with HLA-A*32:01 (setting [6]), the Kd was determined as 2.48 nM. For the sequence KALKINWYKK, the Kd with HLA-A*32:01 (source organism: Dengue virus 3 Singapore/8120/1995) was 8040 nM. In the case of KEENLVRSM, the dissociation constant Kd in the test with HLA-B*40:01 [1] (setting [7]) is 1130 nM. With KGRISYYEM, the Kd with HLA-A*30:01 (setting [6]) was 14.4 nM. As to KIFEYGFTF, the Kd worked out at 255 nM in the test with HLA-B*58:01 (setting [12]); 229 nM with HLA-B*15:01 (setting [12]); 377 nM in the test with HLA-A*11:01 (setting [12]); 4350 nM with HLA-B*40:01 [4]; 4280 nM with HLA-A*69:01 (setting [12]); 106 nM with HLA-A*02:01. The dissociation constant Kd with HLA-A*31:01 (setting [12]) came out at 196 nM; with HLA-A*03:01 [2] (setting [12]), 6020 nM.

As to KIKSPIYYK, the Kd with HLA-A*30:01 (source organism: Vaccinia virus Copenhagen) came out at 0.932 nM. On to KISISYIKL, for which, in the test with HLA-A*30:01 (setting [6]), the Kd was 292 nM.
